Reference: article PMC4135013

What was measured:
[1] = target: soluble form of recombinant mouse CD16 (sCD16) (mouse); assay: ELISA
[2] = target: soluble form of recombinant mouse CD16 (sCD16) (mouse); assay: SPR

Kd [1] [nM] | Kd [2] [nM] | Substance
90 | – | OVA-IC (soluble immune complex of OVA and rabbit anti-OVA IgG) (from UniProt P01012 1-386)
– | 25000 | malondialdehyde-modified low-density lipoprotein (MDALDL)
– | 78 | peroxidase/anti-peroxidase immune complex (PAP-IC)
